Patent US9260500B2, “Peptide and use thereof” (Takeda Pharmaceutical Company Limited, priority 2009, dated 2016)
Non-standard residues stand in square brackets, D forms with d. Phe(4-F) = N[C@@H](Cc1ccc(F)cc1)C(=O)O; Dap(CONH2) = NC(=O)NC[C@H](N)C(=O)O; 4Pal = N[C@@H](Cc1ccncc1)C(=O)O; Cha = N[C@@H](CC1CCCCC1)C(=O)O; Iva = CC[C@](C)(N)C(=O)O; Abu = CC[C@H](N)C(=O)O; Aib = CC(C)(N)C(=O)O

Key:
human Y2 receptor [1] = target: T1, human Y2 receptor (Homo sapiens, UniProt P49146); experiment: Human Y2 Receptor G Protein Binding Assay (GBA), [35S]GTPγS; format: biochemical; conditions: EC50 of test compound/EC50 of PYY(3-36) (PYY3-36 taken as 1), hY2R/CHO membrane fraction
T1 construct: expressed in transfected cells; membrane fraction
T1 sequence (P49146 1-381): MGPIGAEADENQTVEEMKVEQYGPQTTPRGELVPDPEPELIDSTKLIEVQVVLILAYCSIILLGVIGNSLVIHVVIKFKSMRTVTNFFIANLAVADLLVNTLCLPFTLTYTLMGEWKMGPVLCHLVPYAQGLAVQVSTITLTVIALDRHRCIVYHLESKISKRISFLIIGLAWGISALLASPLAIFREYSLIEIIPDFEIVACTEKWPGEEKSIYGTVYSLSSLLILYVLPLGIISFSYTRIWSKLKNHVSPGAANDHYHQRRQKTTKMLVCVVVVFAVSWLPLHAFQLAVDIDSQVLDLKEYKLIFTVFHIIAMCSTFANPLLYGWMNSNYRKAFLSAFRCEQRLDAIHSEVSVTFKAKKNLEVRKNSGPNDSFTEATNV
Procedure, shortened: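 Agonism measured as [35S]GTPγS binding, read by GF/C filtration and scintillation counting after 120 min at room temperature, using human Y2 membranes at 1 μg protein/mL in pH 7.4 Tris/MgCl2/NaCl/GDP buffer. Compound serially diluted 100 μM–1 nM; EC50 normalized to PYY(3-36) (ratio = compound/PYY).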

human Y2 receptor [2] = target: T1, human Y2 receptor; experiment: Receptor Binding Assay (RBA) for Human Y2, [125I]-PYY displacement on hY2R/CHO membrane fraction; conditions: IC50 of test compound/IC50 of PYY(3-36) (PYY(3-36) taken as 1)
Procedure, shortened: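 Read-out is [125I]-PYY displacement from membranes of CHO/dhfr− cells stably transfected with human Y2R. Membranes were obtained by disrupting cells in a buffer of 10 mM NaHCO3, 5 mM EDTA and protease inhibitors.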

Row | GBA EC50 Ratio (human Y2 receptor [1]) | RBA IC50 Ratio (human Y2 receptor [2]) | Substance
1 | 2.2 | 2.8 | Ac-[D-Pro24, Cit25, Pya(4)26, Cha27,36, Aib28,31, Lys30]-PYY(23-36) [compound No. 225]
2 | 1.7 | 8.4 | Ac-[D-Pro24, Aib25,28,31, Pya(4)26, Cha27,36, Lys30]-PYY(23-36) (Ac-S[dP][Aib][4Pal][Cha][Aib]NK[Aib]TRQR[Cha]-NH2; SMILES CC(=O)N[C@@H](CO)C(=O)N1CCC[C@@H]1C(=O)NC(C)(C)C(=O)N[C@@H](Cc1ccncc1)C(=O)N[C@@H](CC1CCCCC1)C(=O)NC(C)(C)C(=O)N[C@@H](CC(N)=O)C(=O)N[C@@H](CCCCN)C(=O)NC(C)(C)C(=O)N[C@H](C(=O)N[C@@H](CCCNC(=N)N)C(=O)N[C@@H](CCC(N)=O)C(=O)N[C@@H](CCCNC(=N)N)C(=O)N[C@@H](CC1CCCCC1)C(N)=O)[C@@H](C)O) [compound No. 236]
3 | 2.2 | 12 | Ac-[D-Pro24, Alb26, Cha27,28,36, Aib31]-PYY(23-36) (Ac-S[dP]R[Dap(CONH2)][Cha][Cha]NL[Aib]TRQR[Cha]-NH2; SMILES CC(=O)N[C@@H](CO)C(=O)N1CCC[C@@H]1C(=O)N[C@@H](CCCNC(=N)N)C(=O)N[C@@H](CNC(N)=O)C(=O)N[C@@H](CC1CCCCC1)C(=O)N[C@@H](CC1CCCCC1)C(=O)N[C@@H](CC(N)=O)C(=O)N[C@@H](CC(C)C)C(=O)NC(C)(C)C(=O)N[C@H](C(=O)N[C@@H](CCCNC(=N)N)C(=O)N[C@@H](CCC(N)=O)C(=O)N[C@@H](CCCNC(=N)N)C(=O)N[C@@H](CC1CCCCC1)C(N)=O)[C@@H](C)O) [compound No. 149]

Continued, substance first:

Row | Substance | GBA EC50 Ratio (human Y2 receptor [1]) | RBA IC50 Ratio (human Y2 receptor [2])
4 | Ac-[Arg23, D-Pro24, Iva25, Pya(4)26, Cha27,36, Aib28,31, Lys30]-PYY(23-36) (Ac-R[dP][Iva][4Pal][Cha][Aib]NK[Aib]TRQR[Cha]-NH2; SMILES CC[C@](C)(NC(=O)[C@H]1CCCN1C(=O)[C@H](CCCNC(=N)N)NC(C)=O)C(=O)N[C@@H](Cc1ccncc1)C(=O)N[C@@H](CC1CCCCC1)C(=O)NC(C)(C)C(=O)N[C@@H](CC(N)=O)C(=O)N[C@@H](CCCCN)C(=O)NC(C)(C)C(=O)N[C@H](C(=O)N[C@@H](CCCNC(=N)N)C(=O)N[C@@H](CCC(N)=O)C(=O)N[C@@H](CCCNC(=N)N)C(=O)N[C@@H](CC1CCCCC1)C(N)=O)[C@@H](C)O) [compound No. 321] | 0.78 | 0.88
5 | Ac-[Phe23, D-Pro24, Abu26, Cha27,28,36, Aib31]-PYY(23-36) (Ac-F[dP]R[Abu][Cha][Cha]NL[Aib]TRQR[Cha]-NH2; SMILES CC[C@H](NC(=O)[C@H](CCCNC(=N)N)NC(=O)[C@H]1CCCN1C(=O)[C@H](Cc1ccccc1)NC(C)=O)C(=O)N[C@@H](CC1CCCCC1)C(=O)N[C@@H](CC1CCCCC1)C(=O)N[C@@H](CC(N)=O)C(=O)N[C@@H](CC(C)C)C(=O)NC(C)(C)C(=O)N[C@H](C(=O)N[C@@H](CCCNC(=N)N)C(=O)N[C@@H](CCC(N)=O)C(=O)N[C@@H](CCCNC(=N)N)C(=O)N[C@@H](CC1CCCCC1)C(N)=O)[C@@H](C)O) [compound No. 107] | 5.9 | 12
6 | Ac-[D-Pro24, Pya(4)26, Phe(4F)27, Aib28,31, Lys30, Cha36]-PYY(23-36) (Ac-S[dP]R[4Pal][Phe(4-F)][Aib]NK[Aib]TRQR[Cha]-NH2; SMILES CC(=O)N[C@@H](CO)C(=O)N1CCC[C@@H]1C(=O)N[C@@H](CCCNC(=N)N)C(=O)N[C@@H](Cc1ccncc1)C(=O)N[C@@H](Cc1ccc(F)cc1)C(=O)NC(C)(C)C(=O)N[C@@H](CC(N)=O)C(=O)N[C@@H](CCCCN)C(=O)NC(C)(C)C(=O)N[C@H](C(=O)N[C@@H](CCCNC(=N)N)C(=O)N[C@@H](CCC(N)=O)C(=O)N[C@@H](CCCNC(=N)N)C(=O)N[C@@H](CC1CCCCC1)C(N)=O)[C@@H](C)O) [compound No. 305] | 3.9 | 10
